Measurements as given in the nanobody polyreactivity screen of Harvey et al. (2022).

experiment: yeast display, Sf9 membrane polyspecificity reagent, FACS + sequencing; frameworks hold sequencing errors
In short: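 In a synthetic yeast display library (Saccharomyces cerevisiae BJ5465), nanobody expression was induced with galactose for 36–48 hours. FACS gates were set low and high (top ~1%) using anti-HA fluorescence for expression and streptavidin fluorescence for binding of the Sf9 membrane reagent. Each polyreactivity label is drawn from the gate of origin.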

| Sequence | polyreactivity (PSR sort gate) |
| --- | --- |
| QVQLVESGGGLVQAGGSLRLSCAASGRILYLNAMGWYRQAPGKERELVAAITRRAGSTRYADSVKGRFTISRDKAKNTVYLQMNSLKPEDTAVYYCAVAYYRNRMDYWGQGTQVTVSS | high polyreactivity |
| QVQLVESGGGLVQAGGSLRLSCAASGSTFYGNAMGWYRQAPGKERELVAAISRGGGSTYYADSVKGRFTISRDNAKNTVYLQMNSLKPEDTAVYYCAATRYLHPWYYPYYYWGQGTQVTVSS | low polyreactivity |
| QVQLVESGGGLVQAGGSLRLSCAASGRIFIANTMGCYRQAPGKERELVAAITQRGDSTYYADSVKGRFTISRDNAKNTVYLQMNSLKPEDTAVYYCAARYYLSSYVRYNYWGQGTQVTVSS | high polyreactivity |
| QVQLGDSGGGLVQAGGSLRLSCAASGRIFYGNAMGWYRQAPWKERELVAAISSGGGSTYYADSVKGRFTISRDNAKNTVYLQMNSLKPEDNAVYYCAADPVPRFPGTGGYWGQGTQVTVSS | low polyreactivity |
| QVQLVESGGGLVQAGGSLRLSCAASGRTFSRNAMGWYRQAPGKERELVAAISDGGGSTYYADSVKGRFTISRDNAKNPVYLQMNILKPEDTAVYYCAARVLDWRGDIHDSEYWGHGTQVTVSS | low polyreactivity |
| QVQLVESGGGLVQAGGSLRLSCAASGFTFTAYAMGWSRQAPGKERELVAAISSGGSTYYADSVKGRFTISRDNAKNTVYLQMNSLKPEDTAVYYCAAVGVYTVKREYWGQGTQVTVSS | low polyreactivity |
| QVQLVESGGGLVQAGGSLRLSCAASGIIFGYYAMGWYRQAPGKEREFVAAINYSGVSTYYADSVKGRFTISRDNAKNTVYLQMNSLKPEDTAVYSCAADFRIVVYGWGGSHMDYWGQGTQVTVSS | low polyreactivity |
| QVKVVESGGGLVQAGGSLRLSCAASGSIYVGYAMGWYRQAPGKERELVAAISWSGDSTYYADSVKGRFTISRDNAKNTVYLQMNSLKPEDTAVYYCAVDYAEIGPRREFEYDYWGQGTQVTVSS | low polyreactivity |
| QVQLVESGGGLVQARGSLRLSCAASGSTFVTYAMGWYRQAPGKERELVAAITWSGGGTYYADSVKGRFTISRDNAKNTVYLQMNSLKPEDTAVYYCNRPAAVGDEDYWGQGTQVTVSS | low polyreactivity |
| QVQLVESGGVLVQAGGSLPLSCAASGRILARNAMGWYRQAPGNERELVAAITSSTDSTYYADSVKGRFTISRDNAKNTVYLQMNSLKPEDTAVYYCATVVRLYRGRYSYDYWGQGTQVTVSS | high polyreactivity |
| QVQLVESGGGLVQAGGSLRLSCAASGRIFIVYVMGWYRQAPGKERELVAGITLSGGNTYYADSVKGRFTISRDNAKNTVYLQMNSLKPEDTAVYYCAAGWYGIEMDYWGQGTQVTVSS | high polyreactivity |
| QVQLVESGGGLVQAGGSLRISCAASGSIFDYYVMGWYRQATGKERELVAAISWSGASTYYADSVKGRCTISRDNAKNTVYLQMNSLKREDTAVYYCAAYYGVNNLIDYDYWGQGTQVTVSS | low polyreactivity |
| QVQLVESGGGLVQAGGSLRLSCAASGSIFPSYAMGWYRQAPGKERELVATISGSGTSTYYADSVKGRFTISRDNAKNTVYLQMNSLKPEDTAVYYSAADPWLGTGRYDYWGQGTQVTVSS | low polyreactivity |
| QVQLVESGGAFVQAGGSLRLSCAASGIIFERNAMGWYRQAPGNERELVAAISGGGSTNYADSVKGRFTISRDNEMNTVYLQRISLKPDDTAVYYCAGKAARRRGYYYWGQGTQVTVSS | high polyreactivity |
| QVQLVESGGGFVQAGGSLRLTCAASGYIFANYGMGWYRQAPGKQMELVAAISGSGGSTYYADSVKGRFTISRDNAKNTVYLQMNSLKPQDTAVYYCAALSNWWSYFTCYDGSDGFDYWVQGTQVTVSS | low polyreactivity |
| QVQLVESGGGLVQAGGSLRLSCDASGLTFAYYAMGWYRQAPGKERELVAAISSSGGRTYYADSVKGRFTISRDNAKNTVYLQMNSLKPEDTAVYYCAKSRYSTQTDYNYWGQGTQVTVSS | high polyreactivity |
| QVQLVESGGGLVQAGGSLRLSCAASGSIFASYDMGWYRQAPGKERELVARITFNGGSTYYADSVKGRFTISRDNAKNTVYLQMNSLKPEDTAVYYCANDYRYIFIYPYGWTRYDYWGQGTQVTVSS | low polyreactivity |
| QVQHVESGGGLVQAGGSLRLICAASGSTFGDNAKGRYREAPGKERELVAVITSDTSTYYADSVKGRFTISRDNAKNTVYLQMNSLKPEDTAVYYCAADWGGLWFWYEYWGQGTQVTVSS | low polyreactivity |
| QVQLVESGGGLVQAGGSLRLSCAASGRIIGYNAMGWYRQAPGKERELVATITYGGGRTYYADSVKGRFTISRDNAKNTVYLQMNSLKPEDTAVYYCAAKHRFPIPGFGYWGQGTQVTVSS | low polyreactivity |
| QVQLVESGGGVVQAGGSIRLSGAASGRIFGEYAMGWYRPAPAKERELGAAISGGGSTYYADSVKGRFTISRDNAKNTVYLQMNSLKPEDTAVYYCAVYSVYHEYDYGGQGTQVTVSS | low polyreactivity |
| QVQLVESAAGLVQAGGSLRLSCAASGLNFASYGMGGYRQAPGKERELVAAISSSVGNTYYADSVKGRFTISRDYAKNTVYLQMNSLNPEDTAVYYCAAAKRSGYTGFKYYYWGQGTQVTVSS | high polyreactivity |
| QVQLVESGGGLVQAGGSLRLSCAASGFTFYLYAMGWYRPAPGKERELVAAITYSAGSTYYADSVKGRFTISRDNEKNTVYLQMNSLKPEDTAVFSCAKRGHYRAWGGGGYWGQGTQVTVSS | low polyreactivity |

| Sequence | polyreactivity (PSR sort gate) |
| --- | --- |
| QVQLVESGGGLVQAGGSLRLSCAPSGSIFGINARAWYRQAPGKERELVAAISSGGSTNNADSVKGRFTISRDNAKNTVYFQMNSLKPEDTAVYYCAARLYYVRYNYWGQGTQGTVSS | high polyreactivity |
| QVQLEESGGGLVQAGGTLRLSCAASGLNFSYNAMGWYRQAPGKERELVAAISYSGGSTYYPDSVKGRFTISRDNAKNTVYLQMNSLKPEDTAVYYCASDAWWLYYGYYYWGQGTQVTLSS | high polyreactivity |
| QEQLQESGSGLVQAGGSLRLSCAASGNIFQDWVMGWYRQAPGKERELVAAISPGAITYYADSVKGRFTISRDNAKYTVYLQTNSLKPEDTAVYYCAAYYIVEYLHGYWGQGTRVTVSS | low polyreactivity |
| QVQLVESGGGLFQAGGSLRLSCAPSGSIFQYNAMGWYRQAPGKERELVAAINRRGTRTYYADSVKGRFTISRDNAKNTVYLQMNSLKPEDTAVYYCNKYQSTDVRSSYSAGYGYWGQGTQVTVSS | high polyreactivity |
| QLQHVESGGGLVQAGGSLRLSCADSGFILYLNAMGWYRQAPGKERELVATITNRGGSTYYADTVKGRFTISRDNAKNTVYLQMNSLKPEDTAVYYCAARTRERYSKPYFYRRFGYWGQGTQVTVSS | low polyreactivity |
| QVQVVESGGGLVKAAGSLGLSCSASGLNFRFYTMGWYRQAPGKERELVAAISTSGGSTYYADSVKGRFTISRDNAKNNVFLQMNSLKPEDTAVYYCIAVYAFNGYDYWGQGTQVTVSS | low polyreactivity |
| QVQLVESGGGLVQAGGSLRLSCAASGSILWSYAMGWYRQAPGKERELVAAISGSTGSTYYADSVKGRFTISRDNAKNTVYLQMNSLKPEDTAVYYCAAEYYEDYDDYDYWGQGTQVTVSS | low polyreactivity |
| QDQLVESGGGLVQAGGSLRLSCAASGFIFWRNTMGWYRQAPGKERELVAVITRGGSTYYADSVKGRFTISRDNAKNTVYLQMNSLKPEDTAVYYCAALNDYYKTFSGYDYWGQGTQVTVSS | low polyreactivity |
| QVQLVESGGGLVQAGGSLRLSCAASGFIFSRYAKGWSRPAPGKERELVAAITRGGGDTYYADSVKGRFTISRDNAKNTVYLQMNSLKPEDTAVYYCNARYRRYTTRFGAMDYWGQGTQVTVSS | high polyreactivity |
| QVQLVESGGGLVQAGGSLRISCAASGLTFGRYAMGWYRQAPGKEMELVAAITGSGGRTYYADSVKGRFTISRDNAKNNVYLQINSLKQEDTAVYYCATEASPRGYAEYDYWGQGTQVTVSS | high polyreactivity |
| QVQLVESGGGLVQAGGSLRLSCAASGGTFKTNAMGWYRQAPGKERELVAAITGSGTSTYYADSVKGRFTISRDNAKNTVYLQMNSLKPEDTAVYYCAADKLYQPGIGDDYWGQGTQVTVSS | low polyreactivity |
| QVQLVESGGGLVQAGGSLRLSCAASGSIFYLYAMGWYRQAPGKERELVAAISWSTSGTYYADSVKGRFTISRDNAKNTVYLQMNSLKPEDTAVYYCAADVYSPWWYDYWGQGTQVTVSS | high polyreactivity |
| QVQLVESGGGLVQAGGSLRLSCAASGRIFVNNAMGWYRQAPGKERELVAAITGRGTRTYYADSVKGRFTISRDNAKNTVYLQMNSLKPEDTADYYCNAVSTAVIGYEYDYWGQGTQVTVSS | high polyreactivity |
| QVQLVESGGGLVQAGGSLRLSCAASGRTFKKYAMGWYRQAPGKERELVAAITGSGGSTYYADSVKGRFTISRDNAKNTVYLQMNSLKPEDTAVYYCAAEVVAQMNYWGQGTQVTVSS | low polyreactivity |
| QVQLVESGGGLVQAGGSLRLSCAASGRTFAIYAMGWYRQAPGKERELVASISSSGDRTYYADSVKGRFTISRDNAKNTVYLQMNSLKPEDTAVYYCAARWRYTYYYWGQGTQVTVSS | high polyreactivity |
| QVQLVESGGGLVQAGGSLRLSCAASGSIFPPYTMGWYRQAPGKERELVAAISWGGGSTYYADSVKGRFTISRDNAKNTVYLQMNSLKPEDTAVYYCAAGRYYRGYYWGQGTQVTVSS | high polyreactivity |
| QVQLVESGGGLVQAGGSLRLSCAASGRIFGYYAMGGYRQAPGKERELVASISYSGASSYYADSVKGRFTISRDNAKNTVYLQMNSLKPEDTAVYYCNTDGDDFFHVIYDYWGQGTQVTVSS | low polyreactivity |
| QVQLVESGGGLVQAGGSLRLSCAASGRIFSGNAMGWYRQAPGKERELVAAISGSGGSTYYADSVKGRFTISRDNAKNTVYLQMNSLKPEDTAVYYCADRYTVRRSGYWGQGTQVTVSS | high polyreactivity |
| QVQLVESGVGLVQAGGILRLSCAASGFIFCQYSMGWYRQAPWKERELVAAISSVGTTNYADSVKGSFTISRDNAKNTVYLQMNSLKPEDTAVYYCNADSLVEYWDYDYWGQGTQVTVSS | low polyreactivity |
| QVQLVESGGGLVQAGGRLGLSCAACGFICDGYAMGWYRQAPGKDRELVAAITGSGGSPYYADSVKGRFTISRDNAKNTVYLQMNSLKPEDTAVYYCNTDYYSVRSGSYWHFPGGDYWGQGTQVTVSS | low polyreactivity |
| QVQLVESGGGLVQAGGSLRLSCAASGSIFSKYAMGWYRQAPGKERELVAAISWSGTSTYYADSVKGRFTISRDNAKNTVYLQMNSLKPEDTAVYYCAASSPRSLSLLGYWGQGTQVTVSS | low polyreactivity |
